Source: FireProtDB
Several values for one entry are separate records, joined by “and”; a condition that tells them apart may be missing. Identical values can stand only once.

B1: DNA-Binding protein, P69542 (parent)
chain: MIKVEIKPSQAQFTTRSGVSRQGKPYSLNEQLCYVDLGNEYPVLVKITLDEGQPAYAPGLYTVHLSSFKVGQFGSLMIDRLRLVPAK
B2: Cytochrome c-552, P15452 (parent)
chain: MKKFLLVAVVGLAGITFANEQLAKQKGCMACHDLKAKKVGPAYADVAKKYAGRKDAVDYLAGKIKKGGSGVWGSVPMPPQNVTDAEAKQLAQWILSIK
B3: Amicyanin, P22364 (parent)
chain: MISATKIRSCLAACVLAAFGATGALADKATIPSESPFAAAEVADGAIVVDIAKMKYETPELHVKVGDTVTWINREAMPHNVHFVAGVLGEAALKGPMMKKEQAYSLTFTEAGTYDYHCTPHPFMRGKVVVE
B4: S121F, Q2YD82 (parent)
chain: MDCAEGRAANLPCNHSTISGNEYVYWYRQIHSQGPQYIIHGLKNNETNEMASLIITEDRKSSTLILPHATLRDTAVYYCIVYDYGQNFVFGPGTRLSVLPYIQNPDPAVYQLRDSKSSDKSVCLFTDFDSQTNVSQSKDSDVYITDKTVLDMRSMDFKSNSAVAWSNKSDFACANAFNNSIIPEDTFFPSPESSCDVKLVEKSFETDTNLNFQNLSVIGFRILLLKVAGFNLLMTLRLWSS
B5: Phosphocarrier protein HPr, P42013 (parent)
chain: MAEKTFKVVSDSGIHARPATILVQTASKFNSEIQLEYNGKTVNLKSIMGVMSLGIPKGATIKITAEGADAAEAMAALTDTLAKEGLAE
B6: Persulfide dioxygenase ETHE1, mitochondrial, O95571 (parent)
chain: MAEAVLRVARRQLSQRGGSGAPILLRQMFEPVSCTFTYLLGDRESREAVLIDPVLETAPRDAQLIKELGLRLLYAVNTHCHADHITGSGLLRSLLPGCQSVISRLSGAQADLHIEDGDSIRFGRFALETRASPGHTPGCVTFVLNDHSMAFTGDALLIRGCGRTDFQQGCAKTLYHSVHEKIFTLPGDCLIYPAHDYHGFTVSTVEEERTLNPRLTLSCEEFVKIMGNLNLPKPQQIDFAVPANMRCGVQTPTA
B7: Tissue factor, P13726 (parent)
chain: METPAWPRVPRPETAVARTLLLGWVFAQVAGASGTTNTVAAYNLTWKSTNFKTILEWEPKPVNQVYTVQISTKSGDWKSKCFYTTDTECDLTDEIVKDVKQTYLARVFSYPAGNVESTGSAGEPLYENSPEFTPYLETNLGQPTIQSFEQVGTKVNVTVEDERTLVRRNNTFLSLRDVFGKDLIYTLYYWKSSSSGKKTAKTNTNEFLIDVDKGENYCFSVQAVIPSRTVNRKSTDSPVECMGQEKGEFREIFYIIGAVVFVVIILVIILAISLHKCRKAGVGQSWKENSPLNVS
B8: Adenylate kinase, P16304 (parent)
chain: MNLVLMGLPGAGKGTQGERIVEDYGIPHISTGDMFRAAMKEETPLGLEAKSYIDKGELVPDEVTIGIVKERLGKDDCERGFLLDGFPRTVAQAEALEEILEEYGKPIDYVINIEVDKDVLMERLTGRRICSVCGTTYHLVFNPPKTPGICDKDGGELYQRADDNEETVSKRLEVNMKQTQPLLDFYSEKGYLANVNGQQDIQDVYADVKDLLGGLKK
B9: Copper-transporting ATPase 2, P35670 (parent)
chain: MPEQERQITAREGASRKILSKLSLPTRAWEPAMKKSFAFDNVGYEGGLDGLGPSSQVATSTVRILGMTCQSCVKSIEDRISNLKGIISMKVSLEQGSATVKYVPSVVCLQQVCHQIGDMGFEASIAEGKAASWPSRSLPAQEAVVKLRVEGMTCQSCVSSIEGKVRKLQGVVRVKVSLSNQEAVITYQPYLIQPEDLRDHVNDMGFEAAIKSKVAPLSLGPIDIERLQSTNPKRPLSSANQNFNNSETLGHQGSHVVTLQLRIDGMHCKSCVLNIEENIGQLLGVQSIQVSLENKTAQVKYDPSCTSPVALQRAIEALPPGNFKVSLPDGAEGSGTDHRSSSSHSPGSPPRNQVQGTCSTTLIAIAGMTCASCVHSIEGMISQLEGVQQISVSLAEGTATVLYNPSVISPEELRAAIEDMGFEASVVSESCSTNPLGNHSAGNSMVQTTDGTPTSVQEVAPHTGRLPANHAPDILAKSPQSTRAVAPQKCFLQIKGMTCASCVSNIERNLQKEAGVLSVLVALMAGKAEIKYDPEVIQPLEIAQFIQDLGFEAAVMEDYAGSDGNIELTITGMTCASCVHNIESKLTRTNGITYASVALATSKALVKFDPEIIGPRDIIKIIEEIGFHASLAQRNPNAHHLDHKMEIKQWKKSFLCSLVFGIPVMALMIYMLIPSNEPHQSMVLDHNIIPGLSILNLIFFILCTFVQLLGGWYFYVQAYKSLRHRSANMDVLIVLATSIAYVYSLVILVVAVAEKAERSPVTFFDTPPMLFVFIALGRWLEHLAKSKTSEALAKLMSLQATEATVVTLGEDNLIIREEQVPMELVQRGDIVKVVPGGKFPVDGKVLEGNTMADESLITGEAMPVTKKPGSTVIAGSINAHGSVLIKATHVGNDTTLAQIVKLVEEAQMSKAPIQQLADRFSGYFVPFIIIMSTLTLVVWIVIGFIDFGVVQRYFPNPNKHISQTEVIIRFAFQTSITVLCIACPCSLGLATPTAVMVGTGVAAQNGILIKGGKPLEMAHKIKTVMFDKTGTITHGVPRVMRVLLLGDVATLPLRKVLAVVGTAEASSEHPLGVAVTKYCKEELGTETLGYCTDFQAVPGCGIGCKVSNVEGILAHSERPLSAPASHLNEAGSLPAEKDAVPQTFSVLIGNREWLRRNGLTISSDVSDAMTDHEMKGQTAILVAIDGVLCGMIAIADAVKQEAALAVHTLQSMGVDVVLITGDNRKTARAIATQVGINKVFAEVLPSHKVAKVQELQNKGKKVAMVGDGVNDSPALAQADMGVAIGTGTDVAIEAADVVLIRNDLLDVVASIHLSKRTVRRIRINLVLALIYNLVGIPIAAGVFMPIGIVLQPWMGSAAMAASSVSVVLSSLQLKCYKKPDLERYEAQAHGHMKPLTASQVSVHIGMDDRWRDSPRATPWDQVSYVSQVSLSSLTSDKPSRHSAAADDDGDKWSLLLNGRDEEQYI
B10: Inorganic pyrophosphatase, P0A7A9 (parent)
chain: MSLLNVPAGKDLPEDIYVVIEIPANADPIKYEIDKESGALFVDRFMSTAMFYPCNYGYINHTLSLDGDPVDVLVPTPYPLQPGSVIRCRPVGVLKMTDEAGEDAKLVAVPHSKLSKEYDHIKDVNDLPELLKAQIAHFFEHYKDLEKGKWVKVEGWENAEAAKAEIVASFERAKNK
B11: Chemotaxis protein CheY, P0AE67 (parent)
chain: MADKELKFLVVDDFSTMRRIVRNLLKELGFNNVEEAEDGVDALNKLQAGGYGFVISDWNMPNMDGLELLKTIRADGAMSALPVLMVTAEAKKENIIAAAQAGASGYVVKPFTAATLEEKLNKIFEKLGM

Variants of: B1
Conditions: Enterobacteria phage fd; pH 7; 25 °C; GdnHCl; CD; MOPS 50 mM; NaCl 100 mM; reversible: yes; structure 1VQB; whole UniProt chain shown

Q: Which unfolding free energy does the source give for E30M here?
A: 0.6 kcal/mol

Variants of: B2
Conditions: Hydrogenobacter thermophilus (strain DSM 6534 / IAM 12695 / TK-6); pH 7; Thermal; CD; reversible: yes; structure 1YNR; whole UniProt chain shown

Q: For A91V, which “change of melting temperature, mutant - wild type (higher = more stable)” value (from here on “change of melting temperature, mutant”) is on record?
A: -7.5 °C and -2.9 °C

Variants of: B3
Conditions: Paracoccus denitrificans; pH 7.5; Thermal; absorbance; Potassium Phosphate Buffer 10 mM; structure 2OV0; whole UniProt chain shown

Q: For W71Y, which Tm is on record?
A: 53.9 °C

Variants of: B4
Conditions: Homo sapiens; Thermal; fluorescence; structure 6U07; whole UniProt chain shown

Q: For S121F, which Tm is on record?
A: 58.5 °C

Q: And the “change of melting temperature, mutant” value?
A: 5.2 °C

Q: With T132I as the variant, how does the Tm read?
A: 55.7 °C

Q: What about the “change of melting temperature, mutant” value of the same variant?
A: 0.8 °C

Q: For D151S, which Tm is on record?
A: 53.3 °C

Q: And the “change of melting temperature, mutant” value?
A: -1.6 °C

Variants of: B5
Conditions: Geobacillus stearothermophilus; pH 7; 25 °C; Urea; CD; sodium phosphate 10 mM; reversible: yes; structure 1Y4Y; whole UniProt chain shown

Q: With F29W as the variant, how does the “ddG of mutation (higher = less stable)” value read?
A: 0.86 kcal/mol

Q: And the denaturant m value?
A: 1.06 kcal/mol/M

Q: And the unfolding free energy?
A: 7.37 kcal/mol

Same assay, conditions: Geobacillus stearothermophilus; pH 7; Thermal; CD; sodium phosphate 10 mM; NaCl 750 mM; reversible: yes; structure 1Y4Y; whole UniProt chain shown

Q: With F29W as the variant, how does the Tm read?
A: 85.3 °C

Same assay, conditions: Geobacillus stearothermophilus; pH 7; Thermal; CD; sodium phosphate 10 mM; reversible: yes; structure 1Y4Y; whole UniProt chain shown

Q: Which Tm does the source give for F29W here?
A: 83.7 °C

Q: And the “change of melting temperature, mutant” value?
A: -4.4 °C

Variants of: B6
Conditions: Homo sapiens; pH 7.5; Thermal; CD; Tris-HCl 50mM; NaCl 150mM; transition: 2; structure 4CHL; whole UniProt chain shown

Q: For R163Q, which Tm is on record?
A: 55 °C

Q: And the “change of melting temperature, mutant” value?
A: -7 °C

Q: Which Tm does the source give for R163W here?
A: 52 °C

Q: What about the “change of melting temperature, mutant” value of the same variant?
A: -10 °C

Variants of: B7
Conditions: Homo sapiens; pH 7.5; 23 °C; GdnHCl; Fluorescence; Tris-HCl 50 mM; reversible: yes; structure 1BOY; whole UniProt chain shown

Q: For R232W, which “ddG of mutation (higher = less stable)” value is on record?
A: -0.6 kcal/mol

Q: What about the “denaturant midpoint (higher = more stable)” value of the same variant?
A: 1.37 M

Q: And the unfolding free energy?
A: 6.9 kcal/mol

Variants of: B8
Conditions: Bacillus subtilis (strain 168); pH 7.4; Thermal; DSC; Hepes 50 mM; reversible: No; structure 2EU8; whole UniProt chain shown

Q: For D23K Y103M E114Q S169T Q180A S187D A193V V208L D210V K217Q, which “change of melting temperature, mutant” value is on record?
A: 5 °C

Q: For L3I G17A D23K K69R G73S D75S I99S Y103M K105R E114Q D118E V119E M121I E122A S169T Q180A D184A S187D E188S G190E Y191V A193V Y205F D210V L211I K217Q, which “change of melting temperature, mutant” value is on record?
A: 12.5 °C

Q: With L3I G17A D23K K69R G73S D75S Y103M K105R E114Q D118E V119E S169T Q180A D184A S187D E188S G190E Y191V A193V Y205F D210V L211I K217Q as the variant, how does the “change of melting temperature, mutant” value read?
A: 11.6 °C

Variants of: B9
Conditions: Homo sapiens; pH 7; 20 °C; Urea; CD; NaH2PO4 50 mM; transition: 2; reversible: No; structure 2ARF; whole UniProt chain shown

Q: For H1069Q, which “ddG of mutation (higher = less stable)” value is on record?
A: 0.96 kcal/mol

Q: What about the “denaturant midpoint (higher = more stable)” value of the same variant?
A: 4.7 M and 4 M

Q: And the unfolding free energy?
A: 5.74 kcal/mol and 6.21 kcal/mol

Variants of: B10
Conditions: Escherichia coli (strain K12); pH 7; Thermal; CD; HEPES 20 mM; MgCl2 5 mM; structure 1FAJ; whole UniProt chain shown

Q: Which Tm does the source give for D27N here?
A: 83 °C

Same assay, conditions: Escherichia coli (strain K12); pH 7; Thermal; CD; HEPES 20 mM; structure 1FAJ; whole UniProt chain shown

Q: For D27N, which Tm is on record?
A: 58 °C

Variants of: B11
Conditions: Escherichia coli (strain K12); pH 7; 25 °C; Urea; Fluorescence; Cacodylate 100 mM; structure 1CEY; whole UniProt chain shown

Q: What does the source list for D13A?
A: ddG of mutation (higher = less stable): -2.7 kcal/mol; unfolding free energy: 8.3 kcal/mol

Q: Which results are given for D57A?
A: ddG of mutation (higher = less stable): -3.3 kcal/mol; unfolding free energy: 8.9 kcal/mol
